Experimental data taken from article PMC8080847.

How the values were obtained:
[1] = target: EGFR on Cos7 cells (African green monkey (endogenous in Cos7)); experiment: single-molecule diffusional mobility shift assay (smDIMSA); living Cos7 cells treated with EGF, no pertuzumab (mock); EGFR bait labelled with Fab-Alexa Fluor 647, tracked before and after the anti-ErbB2 antibody
[2] = target: EGFR on Cos7 cells (African green monkey (endogenous in Cos7)); experiment: single-molecule diffusional mobility shift assay (smDIMSA); living Cos7 cells treated with EGF and pertuzumab; EGFR bait labelled with Fab-Alexa Fluor 647, tracked before and after the anti-ErbB2 antibody
[3] = target: mEos3.2-CD86 (CD86 truncated at R227) (UniProt P42081); experiment: single-molecule diffusional mobility shift assay (smDIMSA); homodimer format on living HeLa cells: receptor partially labelled with the Alexa Fluor 647 Fab (20 nM, 15 min) of a monoclonal antibody, tracked before and after 15 min with the same full-length antibody; 37 °C; peak shift averaged from multiple cells

Row | diffusion coefficient shift (EGF-treated cells) [1] | diffusion coefficient shift (EGF-treated cells, with pertuzumab) [2] | peak shift of the diffusion coefficient [3] | Substance
1 | 12% | 6% | – | ErbB2 on Cos7 cells (receptor)
2 | – | – | < 1% | mEos3.2-CD86 (CD86 truncated at R227) (from UniProt P42081 24-227) (receptor)
